# Reference: the Human Domainome abundance scans (Beltran et al. 2025)
# ± gives the uncertainty stated by the source.
# B1: Membrane-associated guanylate kinase, WW and PDZ domain-containing protein 1, residues 352 to 401; numbered along this chain, Q96QZ7 (parent)
# chain: TEELDSELELPAGWEKIEDPVYGIYYVDHINRKTQYENPVLEAKRKKQLE
# Variants of: B1
# Assay: abundance fitness (aPCA) (normalised: wild type 0, dead -1); higher = more abundant; growth selection in yeast, the domain comes from the species named
# Conditions: Homo sapiens
row,Variant,abundance fitness
1,Y22Q,-0.156 ± 0.11
2,Y22G,-0.027 ± 0.051
3,Y22T,-0.159 ± 0.091
4,R45E,0.073 ± 0.047
5,R45D,-0.171 ± 0.072
6,R45T,0.048 ± 0.075
7,R45Y,-0.266 ± 0.045
8,R45V,-0.162 ± 0.052
9,Q35V,-0.188 ± 0.056
10,Q35E,-0.373 ± 0.055
11,A12W,-0.104 ± 0.048
12,A12E,0.129 ± 0.052
13,A12P,-0.098 ± 0.073
14,L49E,0.132 ± 0.066
15,L49T,-0.002 ± 0.05
16,L49N,-0.222 ± 0.24
17,L49A,-0.003 ± 0.046
18,I17A,-0.227 ± 0.062
19,I17N,-0.604 ± 0.14
20,I17F,-0.258 ± 0.098
21,I17M,-0.041 ± 0.048
22,I17D,-0.637 ± 0.095
23,T1M,-0.074 ± 0.16
24,T1L,-0.128 ± 0.047

row,Variant,abundance fitness
1,T1S,0.004 ± 0.078
2,A43K,-0.236 ± 0.1
3,A43Y,-0.33 ± 0.1
4,A43L,-0.012 ± 0.059
5,A43G,-0.137 ± 0.05
6,P20M,-0.314 ± 0.081
7,D5C,0.032 ± 0.062
8,D5K,0.086 ± 0.088
9,D5V,0.001 ± 0.044
10,D5T,0.059 ± 0.053
11,P11V,-0.671 ± 0.083
12,P11E,-0.377 ± 0.088
13,P11M,-0.185 ± 0.089
14,P11L,-0.35 ± 0.058
15,P11N,-0.728 ± 0.14
16,D19Y,-0.861 ± 0.078
17,D19M,-0.845 ± 0.068
18,D19L,-0.985 ± 0.11
19,D19C,-0.015 ± 0.044
20,G23V,-1.2 ± 0.11
21,G23W,-0.8 ± 0.052
22,G23P,-0.958 ± 0.14
23,G23D,-0.884 ± 0.093
24,G23S,-0.79 ± 0.052

row,Variant,abundance fitness
1,G23E,-0.801 ± 0.12
2,G23Q,-1.34 ± 0.1
3,G23R,-0.56 ± 0.048
4,K44I,-0.438 ± 0.13
5,K44M,-0.064 ± 0.07
6,K44C,-0.03 ± 0.078
7,K44R,-0.057 ± 0.045
8,K44P,-0.27 ± 0.065
9,K44W,-0.237 ± 0.046
10,K47P,-0.121 ± 0.08
11,K47S,0.016 ± 0.059
12,K47Y,-0.207 ± 0.06
13,K47M,-0.102 ± 0.049
14,K47C,-0.232 ± 0.085
15,K47T,-0.077 ± 0.044
16,V27D,0.071 ± 0.084
17,V27G,-0.378 ± 0.04
18,V27K,0.044 ± 0.062
19,V27H,-0.307 ± 0.061
20,P39R,-0.648 ± 0.046
21,P39V,-0.699 ± 0.062
22,P39Y,-1.21 ± 0.23
23,P39C,-0.817 ± 0.12
24,Q48N,0.107 ± 0.047

row,Variant,abundance fitness
1,Q48I,0.188 ± 0.092
2,Q48E,0.262 ± 0.077
3,Q48H,-0.1 ± 0.089
4,Q48L,-0.279 ± 0.055
5,Q48K,-0.035 ± 0.055
6,L8I,-0.361 ± 0.11
7,L8Q,-0.016 ± 0.046
8,L8D,-0.505 ± 0.046
9,L8V,-0.266 ± 0.064
10,L8H,-0.15 ± 0.11
11,L8F,-0.091 ± 0.058
12,L8Y,-0.103 ± 0.067
13,K16M,-0.206 ± 0.1
14,K16D,-0.756 ± 0.17
15,K16S,-0.445 ± 0.044
16,K16Y,-0.902 ± 0.18
17,K16G,-0.561 ± 0.045
18,K16Q,-0.2 ± 0.1
19,K16V,-0.292 ± 0.052
20,I30E,-0.079 ± 0.071
21,I30Y,-0.086 ± 0.1
22,I30R,-0.128 ± 0.038
23,I30L,-0.082 ± 0.054
24,I30Q,-0.215 ± 0.047

row,Variant,abundance fitness
1,I30M,-0.311 ± 0.088
2,I30F,-0.195 ± 0.041
3,E7D,-0.039 ± 0.072
4,E7M,-0.046 ± 0.098
5,E37Y,-0.611 ± 0.089
6,E37H,-0.321 ± 0.11
7,E37F,-0.438 ± 0.054
8,E37N,-0.005 ± 0.098
9,D28R,-1.09 ± 0.059
10,D28H,-0.634 ± 0.048
11,D28G,-1.07 ± 0.065
12,D28Y,-0.861 ± 0.24
13,D28P,-0.855 ± 0.14
14,E2G,-0.086 ± 0.057
15,E2Q,-0.145 ± 0.12
16,E2W,0.113 ± 0.1
17,N31D,-0.28 ± 0.055
18,N31L,-0.325 ± 0.041
19,N31S,-0.135 ± 0.064
20,N31E,-0.396 ± 0.069
21,T34K,-0.219 ± 0.088
22,T34V,-0.232 ± 0.045
23,T34S,-0.11 ± 0.048
24,T34G,-0.453 ± 0.061

row,Variant,abundance fitness
1,T34C,0.042 ± 0.074
2,K46P,-0.044 ± 0.087
3,K46D,0.012 ± 0.052
4,K46T,-0.333 ± 0.11
5,K46Q,-0.026 ± 0.064
6,E15F,-0.764 ± 0.13
7,V21Q,-0.008 ± 0.099
8,N38Y,-0.365 ± 0.097
9,N38F,-0.058 ± 0.062
10,N38I,-0.61 ± 0.2
11,N38A,-0.146 ± 0.059
12,N38H,0.171 ± 0.057
13,L41R,-0.039 ± 0.037
14,L41C,-0.116 ± 0.075
15,L41A,0.038 ± 0.05
16,L41P,-0.128 ± 0.07
17,L41I,-0.324 ± 0.11
18,L41E,-0.053 ± 0.071
19,L41S,-0.011 ± 0.055
20,E42P,-0.361 ± 0.05
21,E42I,-0.117 ± 0.087
22,E42L,-0.231 ± 0.048
23,E42V,-0.149 ± 0.043
24,E42R,-0.565 ± 0.053

row,Variant,abundance fitness
1,E42G,-0.137 ± 0.038
2,L10V,-0.221 ± 0.054
3,L10D,-0.705 ± 0.16
4,L10A,-0.322 ± 0.072
5,L10H,-0.751 ± 0.26
6,L10R,-0.626 ± 0.066
7,H29A,-0.229 ± 0.056
8,H29W,-0.439 ± 0.049
9,H29R,-0.217 ± 0.043
10,E9A,0.105 ± 0.044
11,E9L,-0.223 ± 0.058
12,E9K,-0.078 ± 0.057
13,E9I,-0.312 ± 0.13
14,E9V,-0.126 ± 0.061
15,Y26R,-0.549 ± 0.047
16,Y26W,-0.257 ± 0.055
17,Y26S,-0.337 ± 0.065
18,Y26I,-0.982 ± 0.15
19,R32F,-0.431 ± 0.063
20,R32K,-0.061 ± 0.083
21,R32G,-0.013 ± 0.039
22,R32S,-0.119 ± 0.041
23,R32H,0.125 ± 0.1
